Measured values published in patent US20200317768A1 (published 2020).

B1: M103205H795-MY001/M103202L889-SK1 (antibody, human IgG1, kappa)
heavy: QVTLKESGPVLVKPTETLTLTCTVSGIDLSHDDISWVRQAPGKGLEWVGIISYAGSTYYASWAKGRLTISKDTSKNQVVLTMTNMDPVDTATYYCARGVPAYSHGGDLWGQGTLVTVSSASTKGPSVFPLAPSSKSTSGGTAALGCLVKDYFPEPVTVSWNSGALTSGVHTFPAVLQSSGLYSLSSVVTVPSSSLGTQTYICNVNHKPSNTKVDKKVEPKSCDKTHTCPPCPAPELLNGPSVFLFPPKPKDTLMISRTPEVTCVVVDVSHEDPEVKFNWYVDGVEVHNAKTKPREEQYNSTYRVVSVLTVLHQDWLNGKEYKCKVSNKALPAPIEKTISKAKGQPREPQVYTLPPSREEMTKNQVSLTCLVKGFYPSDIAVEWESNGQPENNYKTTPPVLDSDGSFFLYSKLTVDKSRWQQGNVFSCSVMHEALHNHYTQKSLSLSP
light: DIVMTQSPATLSLSPGERATLSCTSSQSVYHANWLSWFQQKPGQPPKLLIYWASTLAYGVPSRFSGSGSGTDFTLTISSLQPEDAATYYCAGGYGGGRYAFGQGTKVEIKRTVAAPSVFIFPPSDEQLKSGTASVVCLLNNFYPREAKVQWKVDNALQSGNSQESVTEQDSKDSTYSLSSTLTLSKADYEKHKVYACEVTHQGLSSPVTKSFNRGEC
notes: Substitution put into M103205H795-SG1
B2: M103205H795-MY011/M103202L889-SK1 (antibody, human IgG1, kappa)
heavy: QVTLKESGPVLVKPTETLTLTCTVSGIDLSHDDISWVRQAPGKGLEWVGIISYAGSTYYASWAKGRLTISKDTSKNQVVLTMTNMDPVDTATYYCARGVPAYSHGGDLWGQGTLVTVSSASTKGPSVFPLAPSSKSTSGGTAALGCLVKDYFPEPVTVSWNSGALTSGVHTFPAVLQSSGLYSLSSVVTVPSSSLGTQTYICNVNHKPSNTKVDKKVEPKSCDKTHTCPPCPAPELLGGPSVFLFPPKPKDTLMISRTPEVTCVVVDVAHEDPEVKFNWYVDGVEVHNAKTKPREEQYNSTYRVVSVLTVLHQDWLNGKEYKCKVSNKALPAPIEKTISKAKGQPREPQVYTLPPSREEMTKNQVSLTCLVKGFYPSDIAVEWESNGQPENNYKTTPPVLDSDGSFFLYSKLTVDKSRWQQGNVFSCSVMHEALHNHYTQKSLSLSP
light: DIVMTQSPATLSLSPGERATLSCTSSQSVYHANWLSWFQQKPGQPPKLLIYWASTLAYGVPSRFSGSGSGTDFTLTISSLQPEDAATYYCAGGYGGGRYAFGQGTKVEIKRTVAAPSVFIFPPSDEQLKSGTASVVCLLNNFYPREAKVQWKVDNALQSGNSQESVTEQDSKDSTYSLSSTLTLSKADYEKHKVYACEVTHQGLSSPVTKSFNRGEC
notes: Put into M103205H795-SG1
B3: M103205H795-MY042/M103202L889-SK1 (antibody, human IgG1, kappa)
heavy: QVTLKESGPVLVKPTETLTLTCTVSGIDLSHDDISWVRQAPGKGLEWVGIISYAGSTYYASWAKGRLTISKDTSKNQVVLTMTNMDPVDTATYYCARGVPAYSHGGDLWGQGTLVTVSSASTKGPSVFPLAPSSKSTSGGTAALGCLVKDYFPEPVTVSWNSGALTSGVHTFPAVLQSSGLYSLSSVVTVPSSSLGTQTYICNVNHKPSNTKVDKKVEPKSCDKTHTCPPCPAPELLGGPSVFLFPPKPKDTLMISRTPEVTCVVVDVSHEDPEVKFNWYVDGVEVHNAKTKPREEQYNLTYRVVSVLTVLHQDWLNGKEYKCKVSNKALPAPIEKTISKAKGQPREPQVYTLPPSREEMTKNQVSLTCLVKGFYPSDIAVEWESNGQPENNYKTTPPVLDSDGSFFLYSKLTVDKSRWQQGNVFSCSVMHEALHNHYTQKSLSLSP
light: DIVMTQSPATLSLSPGERATLSCTSSQSVYHANWLSWFQQKPGQPPKLLIYWASTLAYGVPSRFSGSGSGTDFTLTISSLQPEDAATYYCAGGYGGGRYAFGQGTKVEIKRTVAAPSVFIFPPSDEQLKSGTASVVCLLNNFYPREAKVQWKVDNALQSGNSQESVTEQDSKDSTYSLSSTLTLSKADYEKHKVYACEVTHQGLSSPVTKSFNRGEC
notes: as for B1
B4: M103205H795-MY074/M103202L889-SK1 (antibody, human IgG1, kappa)
heavy: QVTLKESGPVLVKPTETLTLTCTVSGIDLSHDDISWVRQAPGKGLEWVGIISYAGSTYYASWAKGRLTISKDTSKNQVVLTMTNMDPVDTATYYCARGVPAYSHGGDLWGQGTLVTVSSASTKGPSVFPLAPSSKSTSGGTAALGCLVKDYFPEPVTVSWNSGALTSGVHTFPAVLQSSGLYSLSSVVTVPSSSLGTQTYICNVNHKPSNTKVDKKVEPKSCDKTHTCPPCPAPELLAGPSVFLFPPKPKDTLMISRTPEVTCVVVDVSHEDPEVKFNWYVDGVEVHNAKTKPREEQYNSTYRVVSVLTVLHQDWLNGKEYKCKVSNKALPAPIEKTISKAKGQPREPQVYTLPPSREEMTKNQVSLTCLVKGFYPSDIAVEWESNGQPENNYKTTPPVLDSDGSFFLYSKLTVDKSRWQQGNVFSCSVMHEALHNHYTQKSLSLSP
light: DIVMTQSPATLSLSPGERATLSCTSSQSVYHANWLSWFQQKPGQPPKLLIYWASTLAYGVPSRFSGSGSGTDFTLTISSLQPEDAATYYCAGGYGGGRYAFGQGTKVEIKRTVAAPSVFIFPPSDEQLKSGTASVVCLLNNFYPREAKVQWKVDNALQSGNSQESVTEQDSKDSTYSLSSTLTLSKADYEKHKVYACEVTHQGLSSPVTKSFNRGEC
notes: as for B1

Legend:
[1] = molecular target: T1, human FcγRIIb extracellular domain, His-tagged (human, UniProt P31994 43-217); experiment: SPR; KD of SG1 / KD of variant;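 also: relative to parent M103205H795-SG1 carrying the SG1 human heavy chain constant region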
T1 construct: also called FcgRIIb (human)
T1 sequence: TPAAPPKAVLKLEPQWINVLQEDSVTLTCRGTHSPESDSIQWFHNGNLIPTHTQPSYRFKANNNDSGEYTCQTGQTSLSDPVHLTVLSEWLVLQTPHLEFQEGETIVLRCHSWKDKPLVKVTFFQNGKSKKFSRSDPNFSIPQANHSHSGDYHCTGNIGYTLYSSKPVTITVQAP

[2] = molecular target: T2, cynomolgus monkey FcγRIIa3 extracellular domain, His-tagged (cynomolgus monkey); experiment: SPR; KD of SG1 / KD of variant;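 also: relative to parent M103205H795-SG1 carrying the SG1 human heavy chain constant region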
T2 construct: also called cyno FcγRIIa3; cynoFcgRIIa3
T2 chain: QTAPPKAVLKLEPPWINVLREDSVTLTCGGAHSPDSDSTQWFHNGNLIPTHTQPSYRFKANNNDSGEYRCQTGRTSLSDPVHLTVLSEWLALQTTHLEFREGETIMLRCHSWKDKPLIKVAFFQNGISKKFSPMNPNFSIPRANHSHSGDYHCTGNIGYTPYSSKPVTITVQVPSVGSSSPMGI

[3] = molecular target: T3, human FcγRIIaR extracellular domain, His-tagged (human, UniProt P12318 34-217); experiment: SPR; KD of SG1 / KD of variant;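 also: relative to parent M103205H795-SG1 carrying the SG1 human heavy chain constant region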
T3 construct: also called human FcγRIIa (type R); FcgRIIaR
T3 chain: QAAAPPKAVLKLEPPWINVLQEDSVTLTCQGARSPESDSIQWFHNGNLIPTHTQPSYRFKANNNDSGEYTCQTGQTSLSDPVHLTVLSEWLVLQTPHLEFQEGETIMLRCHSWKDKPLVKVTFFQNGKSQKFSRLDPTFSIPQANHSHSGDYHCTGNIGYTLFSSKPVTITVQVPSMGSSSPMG

[4] = molecular target: T4, cynomolgus monkey FcγRIIb extracellular domain, His-tagged (cynomolgus monkey); experiment: SPR; KD of SG1 / KD of variant;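 also: relative to parent M103205H795-SG1 carrying the SG1 human heavy chain constant region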
T4 construct: also called cyno FcγRIIb; cynoFcγRIIb
T4 chain: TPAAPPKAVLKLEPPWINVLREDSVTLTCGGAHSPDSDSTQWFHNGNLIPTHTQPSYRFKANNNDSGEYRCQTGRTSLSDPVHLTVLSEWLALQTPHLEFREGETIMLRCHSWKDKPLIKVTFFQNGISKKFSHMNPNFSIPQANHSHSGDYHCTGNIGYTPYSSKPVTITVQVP

[5] = molecular target: T5, human FcγRIIaH extracellular domain, His-tagged (human, UniProt P12318 34-217); experiment: SPR; KD of SG1 / KD of variant
T5 construct: also called human FcγRIIa (type H); FcgRIIaH
T5 sequence: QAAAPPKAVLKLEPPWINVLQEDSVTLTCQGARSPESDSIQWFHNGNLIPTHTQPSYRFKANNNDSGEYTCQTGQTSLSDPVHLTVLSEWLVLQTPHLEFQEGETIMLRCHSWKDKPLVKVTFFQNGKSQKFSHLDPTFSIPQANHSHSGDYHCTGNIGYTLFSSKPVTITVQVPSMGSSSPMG

[6] = molecular target: T6, human FcγRIIIaV extracellular domain, His-tagged (human, UniProt P08637 17-208); experiment: SPR; KD of SG1 / KD of variant
T6 construct: also called FcgRIIIaV

[7] = molecular target: T7, cynomolgus monkey FcγRIIa1 extracellular domain, His-tagged (cynomolgus monkey); experiment: SPR; KD of SG1 / KD of variant
T7 construct: also called cyno FcγRIIa1; cynoFcgRIIa1
T7 chain: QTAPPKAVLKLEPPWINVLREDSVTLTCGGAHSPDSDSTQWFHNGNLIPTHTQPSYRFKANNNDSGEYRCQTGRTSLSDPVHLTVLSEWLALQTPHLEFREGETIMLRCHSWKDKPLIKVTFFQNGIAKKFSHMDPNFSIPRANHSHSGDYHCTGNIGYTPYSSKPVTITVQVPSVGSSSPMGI

[8] = molecular target: T8, cynomolgus monkey FcγRIIa2 extracellular domain, His-tagged (cynomolgus monkey); experiment: SPR; KD of SG1 / KD of variant
T8 construct: also called cyno FcγRIIa2; cynoFcgRIIa2
T8 chain: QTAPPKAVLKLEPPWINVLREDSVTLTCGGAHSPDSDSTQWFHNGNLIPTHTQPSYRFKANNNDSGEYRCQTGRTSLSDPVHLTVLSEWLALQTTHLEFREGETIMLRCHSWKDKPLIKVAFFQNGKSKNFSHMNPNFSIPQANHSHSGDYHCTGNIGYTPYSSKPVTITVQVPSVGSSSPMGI

[9] = molecular target: T9, cynomolgus monkey FcγRIIIaS extracellular domain, His-tagged (cynomolgus monkey, UniProt Q8SPW2 21-206 at identity 1.00)); experiment: SPR; KD of SG1 / KD of variant
T9 construct: also called cyno FcγRIIIaS; cynoFcγRIIIaS
T9 chain: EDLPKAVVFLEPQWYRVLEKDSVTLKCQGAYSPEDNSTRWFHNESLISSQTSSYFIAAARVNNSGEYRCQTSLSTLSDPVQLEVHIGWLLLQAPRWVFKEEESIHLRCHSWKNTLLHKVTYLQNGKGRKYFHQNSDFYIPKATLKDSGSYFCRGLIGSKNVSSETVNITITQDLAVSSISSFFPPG

[10] = molecular target: T1, human FcγRIIb extracellular domain, …; experiment: SPR, antibody captured, FcgR analyte
Description: (§1) The kinetic analysis of interactions between these antibodies and FcγR was carried out using BIACORE® T200 or BIACORE® 4000 (GE Healthcare). HBS-EP+ (GE Healthcare) was used as the running buffer, and the measurement temperature was set to 25° C. A chip produced by immobilizing Protein A. Protein A/G or mouse anti-human IgG kappa light chain (BD Biosciences) onto a Series S Sensor Chip CM4 or CM5 (GE Healthcare) by the amine-coupling method was used. […] After the measurement, the antibody captured on the chip was washed off by allowing reaction with 10 mM glycine-HCl, pH1.5 and 25 mM NaOH so that the chip was regenerated and used repeatedly. The sensorgrams obtained as measurement results were analyzed by the 1:1 Langmuir binding model using the BIACORE® Evaluation Software to calculate the binding rate constant ka (L/mol/s) and dissociation rate constant kd (l/s), and the dissociation constant KD (mol/L) was calculated from these values. […] Regarding such interactions, KD values were calculated using the following 1:1 binding model described in BIACORE® T100 Software Handbook BR1006-48 Edition AE.
(§2) The behavior of interacting molecules according to the 1:1 binding model on BIACORE® can be described by Equation 1: Req=C·R max/(KD+C)+RI, wherein, Req is a plot of steady-state binding levels to analyte concentration. C is concentration, RI is bulk refractive index contribution in the sample, and Rmax is analyte binding capacity of the surface. When this equation is rearranged, KD can be expressed as Equation 2: KD=C·Rmax/(Req−RI)−C. KD can be calculated by substituting the values of Rmax, RI, and C into Equation 1 or Equation 2. From the current measurement conditions, RI=0, C=2 μmol/L can be used.

[11] = molecular target: T2, cynomolgus monkey FcγRIIa3 …; experiment: SPR, antibody captured, FcgR analyte
Description: as §1, §2

[12] = molecular target: T3, human FcγRIIaR extracellular domain, …; experiment: SPR, antibody captured, FcgR analyte
Description: as §1, §2

[13] = molecular target: T4, cynomolgus monkey FcγRIIb extracellular …; experiment: SPR, antibody captured, FcgR analyte
Description: as §1, §2

[14] = molecular target: T5, human FcγRIIaH extracellular domain, …; experiment: SPR, antibody captured, FcgR analyte
Description: as §1, §2

[15] = molecular target: T7, cynomolgus monkey FcγRIIa1 …; experiment: SPR, antibody captured, FcgR analyte
Description: as §1, §2

[16] = molecular target: T8, cynomolgus monkey FcγRIIa2 …; experiment: SPR, antibody captured, FcgR analyte
Description: as §1, §2

[17] = molecular target: T9, cynomolgus monkey FcγRIIIaS …; experiment: SPR, antibody captured, FcgR analyte
Description: as §1, §2

[18] = molecular target: T6, human FcγRIIIaV extracellular domain, …; experiment: SPR, antibody captured, FcgR analyte
Description: as §1, §2

T6 sequence (P08637 17-208 F176V): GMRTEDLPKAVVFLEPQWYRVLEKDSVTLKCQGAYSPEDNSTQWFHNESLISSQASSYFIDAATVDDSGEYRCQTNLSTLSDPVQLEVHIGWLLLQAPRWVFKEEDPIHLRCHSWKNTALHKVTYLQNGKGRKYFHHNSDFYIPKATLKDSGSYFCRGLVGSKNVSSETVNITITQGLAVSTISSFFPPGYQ

Row | Binder | KD fold (SG1 = 1) [1] [fold] | KD fold (SG1 = 1) [2] [fold] | KD fold (SG1 = 1) [3] [fold] | KD fold (SG1 = 1) [4] [fold] | KD fold (SG1 = 1) [5] [fold] | KD fold (SG1 = 1) [6] [fold] | KD fold (SG1 = 1) [7] [fold] | KD fold (SG1 = 1) [8] [fold] | KD fold (SG1 = 1) [9] [fold] | Kd [10] [nM] | Kd [11] [nM] | Kd [12] [nM] | Kd [13] [nM] | Kd [14] [nM] | Kd [15] [nM] | Kd [16] [nM] | Kd [17] [nM] | Kd [18] [nM]
1 | B1 | 0.6 | 1.2 | 0.1 | 1 | 0.2 | 0.84 | 1.1 | 1.4 | 0.03 | 7700 | 15000 | 8200 | 1800 | 3200 | 2900 | 3500 | 1200 | 
2 | B2 | 7 | 1.7 | 6.5 | 1.8 | 1.4 | 2.38 | 1.4 | 1.8 | 2.4 | 660 | 9900 | 170 | 1000 | 490 |  | 2800 | 150 | 340
3 | B3 | 1.2 | 2.1 | 1.1 | 1.1 | 0.7 | 1.53 | 6.3 | 1.6 | 0.82 | 4000 | 8000 | 980 | 1600 | 1000 |  | 3100 | 440 | 530
4 | B4 | 1.3 | 2.7 | 5.2 | 1.6 | 7.5 | 1.45 | 1.6 | 2.2 | 1.33 | 8600 | 6200 |  | 1100 | 92 | 2000 |  | 270 | 560
